Measurements reported in patent US20250388702A1 (Dana-Farber, published 2025).

Experiments:
[1] = target: T1, KIR2DS1 (UniProt Q14954 22-304, limits assumed); test: HEK293 cell microarray
T1 construct: whole, on cells

[2] = target: T2, KIR3DS1 (UniProt Q14943 22-382, limits assumed); test: HEK293 cell microarray
T2 construct: whole, on cells

[3] = target: T3, KIR2DS5 (UniProt Q14953 22-304, limits assumed); test: HEK293 cell microarray
T3 construct: whole, on cells

[4] = target: T4, KIR3DL2 (UniProt P43630 22-455, limits assumed); test: HEK293 cell microarray
T4 construct: whole, on cells

[5] = target: T5, KIR2DL1 (UniProt P43626 22-348, limits assumed); test: HEK293 cell microarray
T5 construct: whole, on cells

[6] = target: T6, KIR2DL2 (UniProt P43627 22-348, limits assumed); test: HEK293 cell microarray
T6 construct: whole, on cells

[7] = target: T7, KIR2DL4 (UniProt Q99706 22-377, limits assumed); test: HEK293 cell microarray
T7 construct: whole, on cells

[8] = target: T8, KIR2DS3 (UniProt Q14952 22-304, limits assumed); test: HEK293 cell microarray
T8 construct: whole, on cells

[9] = target: T9, KIR2DS2 (UniProt P43631 22-304, limits assumed); test: HEK293 cell microarray
T9 construct: whole, on cells

[10] = target: T10, KIR2DL3 (UniProt P43628 22-341, limits assumed); test: HEK293 cell microarray
T10 construct: whole, on cells

[11] = target: T11, KIR3DL1 (UniProt P43629 22-444, limits assumed); test: HEK293 cell microarray
T11 construct: whole, on cells

[12] = target: T12, KIR2DL5A (UniProt Q8N109 22-375, limits assumed); test: HEK293 cell microarray, hybridoma supernatant
T12 construct: whole, on cells
Protocol: In Table 4, replicate microarray slides expressing the KIR family cDNA panel (as in FIG. 1A, FIG. 2B, and FIG. 2C) were fixed and blocked with buffer containing PBS/0.5% BSA and incubated for 1 hour at room temperature with individual KIR3DL3 mAb hybridoma supernatants at 1:5, 1:25 and 1:250 dilutions in PBS/0.1% BSA. Cell arrays were washed with PBS and incubated for 1 hour at room temperature in PBS/0.1% BSA containing AF647-conjugated goat anti-mouse IgG (H+L) (Life Technologies, A21235). Slides were washed with PBS, dried, and imaged for ZsGreen1 and AF647 fluorescence.

T12 sequence (Q8N109 22-375 limits assumed): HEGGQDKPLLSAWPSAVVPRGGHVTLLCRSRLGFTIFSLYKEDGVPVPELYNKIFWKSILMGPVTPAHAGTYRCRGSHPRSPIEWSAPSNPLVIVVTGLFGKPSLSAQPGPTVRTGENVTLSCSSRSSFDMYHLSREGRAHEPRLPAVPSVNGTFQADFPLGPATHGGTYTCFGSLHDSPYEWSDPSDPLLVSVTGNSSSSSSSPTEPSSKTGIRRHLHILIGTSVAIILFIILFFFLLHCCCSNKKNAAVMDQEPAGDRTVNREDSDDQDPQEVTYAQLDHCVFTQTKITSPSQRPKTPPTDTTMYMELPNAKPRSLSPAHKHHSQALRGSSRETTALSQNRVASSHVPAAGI
T2 sequence (Q14943 22-382 limits assumed): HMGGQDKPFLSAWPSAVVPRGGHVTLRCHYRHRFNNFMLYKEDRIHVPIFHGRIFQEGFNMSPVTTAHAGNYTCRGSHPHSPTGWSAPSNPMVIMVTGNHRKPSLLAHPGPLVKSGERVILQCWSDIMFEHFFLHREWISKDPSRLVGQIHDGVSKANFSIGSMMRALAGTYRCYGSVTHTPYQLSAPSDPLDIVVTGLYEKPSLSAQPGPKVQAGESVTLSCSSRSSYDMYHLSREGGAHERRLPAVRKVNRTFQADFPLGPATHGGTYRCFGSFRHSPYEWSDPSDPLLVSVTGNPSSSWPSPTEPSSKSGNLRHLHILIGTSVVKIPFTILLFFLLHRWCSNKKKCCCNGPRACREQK
T7 sequence (Q99706 22-377 limits assumed): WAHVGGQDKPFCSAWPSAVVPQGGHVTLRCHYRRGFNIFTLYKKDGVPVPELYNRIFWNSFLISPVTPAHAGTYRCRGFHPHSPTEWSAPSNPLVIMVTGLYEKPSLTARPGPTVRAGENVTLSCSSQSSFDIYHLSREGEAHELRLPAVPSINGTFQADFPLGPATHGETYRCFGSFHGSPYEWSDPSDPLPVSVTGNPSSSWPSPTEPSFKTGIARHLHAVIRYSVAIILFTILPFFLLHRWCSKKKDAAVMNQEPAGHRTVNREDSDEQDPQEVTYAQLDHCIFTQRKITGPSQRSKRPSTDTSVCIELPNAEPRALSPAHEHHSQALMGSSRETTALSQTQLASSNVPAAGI
T5 sequence (P43626 22-348 limits assumed): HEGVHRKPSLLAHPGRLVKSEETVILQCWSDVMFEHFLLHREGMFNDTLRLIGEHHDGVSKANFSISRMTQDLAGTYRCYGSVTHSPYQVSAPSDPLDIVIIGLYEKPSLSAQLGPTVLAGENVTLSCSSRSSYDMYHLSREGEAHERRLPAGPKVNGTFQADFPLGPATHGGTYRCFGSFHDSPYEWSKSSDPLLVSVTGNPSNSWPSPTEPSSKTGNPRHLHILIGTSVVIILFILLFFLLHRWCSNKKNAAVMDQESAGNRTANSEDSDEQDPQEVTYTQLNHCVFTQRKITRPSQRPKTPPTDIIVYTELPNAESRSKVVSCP
T9 sequence (P43631 22-304 limits assumed): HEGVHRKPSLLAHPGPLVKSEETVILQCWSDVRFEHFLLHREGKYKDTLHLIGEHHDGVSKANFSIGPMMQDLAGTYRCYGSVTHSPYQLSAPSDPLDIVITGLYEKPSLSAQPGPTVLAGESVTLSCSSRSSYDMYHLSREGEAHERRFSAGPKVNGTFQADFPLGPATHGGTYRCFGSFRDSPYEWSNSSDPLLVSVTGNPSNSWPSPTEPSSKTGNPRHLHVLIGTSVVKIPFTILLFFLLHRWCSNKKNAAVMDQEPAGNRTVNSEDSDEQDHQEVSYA
T4 sequence (P43630 22-455 limits assumed): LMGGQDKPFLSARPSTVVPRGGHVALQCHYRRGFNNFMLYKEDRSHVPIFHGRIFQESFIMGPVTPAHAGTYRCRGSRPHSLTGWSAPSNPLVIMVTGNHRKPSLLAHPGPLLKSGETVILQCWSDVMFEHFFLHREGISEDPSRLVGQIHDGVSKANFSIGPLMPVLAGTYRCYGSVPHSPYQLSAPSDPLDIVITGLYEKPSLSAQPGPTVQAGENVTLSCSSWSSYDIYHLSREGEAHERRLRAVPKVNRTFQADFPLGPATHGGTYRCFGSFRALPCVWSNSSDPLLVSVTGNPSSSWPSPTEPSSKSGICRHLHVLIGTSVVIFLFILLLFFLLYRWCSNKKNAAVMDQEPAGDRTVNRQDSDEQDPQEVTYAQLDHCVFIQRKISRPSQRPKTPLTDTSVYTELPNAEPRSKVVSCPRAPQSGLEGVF
T8 sequence (Q14952 22-304 limits assumed): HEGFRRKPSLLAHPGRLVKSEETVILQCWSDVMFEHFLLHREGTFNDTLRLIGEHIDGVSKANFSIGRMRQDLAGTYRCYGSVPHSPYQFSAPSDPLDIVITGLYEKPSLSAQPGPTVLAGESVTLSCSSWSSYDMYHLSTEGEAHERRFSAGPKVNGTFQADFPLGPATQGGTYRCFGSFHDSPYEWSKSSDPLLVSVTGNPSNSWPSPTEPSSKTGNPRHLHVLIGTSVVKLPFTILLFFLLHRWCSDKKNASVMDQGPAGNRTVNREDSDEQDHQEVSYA
T6 sequence (P43627 22-348 limits assumed): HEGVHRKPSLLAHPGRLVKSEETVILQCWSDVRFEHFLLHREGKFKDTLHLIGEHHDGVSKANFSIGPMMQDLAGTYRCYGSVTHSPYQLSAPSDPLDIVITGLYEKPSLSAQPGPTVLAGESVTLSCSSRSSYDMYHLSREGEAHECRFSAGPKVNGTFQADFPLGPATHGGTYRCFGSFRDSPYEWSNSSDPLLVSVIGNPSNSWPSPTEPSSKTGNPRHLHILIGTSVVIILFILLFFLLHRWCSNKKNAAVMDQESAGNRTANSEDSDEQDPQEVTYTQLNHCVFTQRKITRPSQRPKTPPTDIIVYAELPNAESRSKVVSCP
T1 sequence (Q14954 22-304 limits assumed): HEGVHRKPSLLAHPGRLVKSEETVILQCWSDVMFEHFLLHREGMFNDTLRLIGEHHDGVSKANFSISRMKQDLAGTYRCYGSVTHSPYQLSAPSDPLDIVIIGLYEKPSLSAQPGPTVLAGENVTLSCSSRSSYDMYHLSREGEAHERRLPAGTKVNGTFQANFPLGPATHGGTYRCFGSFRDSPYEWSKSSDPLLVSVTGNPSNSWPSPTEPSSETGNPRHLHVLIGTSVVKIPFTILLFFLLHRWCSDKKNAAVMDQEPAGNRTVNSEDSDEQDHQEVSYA
T11 sequence (P43629 22-444 limits assumed): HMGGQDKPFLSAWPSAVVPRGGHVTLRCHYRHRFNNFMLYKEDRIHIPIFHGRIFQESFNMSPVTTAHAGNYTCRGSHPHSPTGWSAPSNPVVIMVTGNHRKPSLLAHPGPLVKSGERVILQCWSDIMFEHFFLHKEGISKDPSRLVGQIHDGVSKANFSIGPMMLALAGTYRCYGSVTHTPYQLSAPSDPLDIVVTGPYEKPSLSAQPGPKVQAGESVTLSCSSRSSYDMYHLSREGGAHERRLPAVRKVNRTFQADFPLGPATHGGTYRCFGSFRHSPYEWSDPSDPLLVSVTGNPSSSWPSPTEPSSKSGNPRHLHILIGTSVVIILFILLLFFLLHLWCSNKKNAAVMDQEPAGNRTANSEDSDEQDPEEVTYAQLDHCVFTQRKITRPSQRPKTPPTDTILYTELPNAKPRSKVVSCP
T3 sequence (Q14953 22-304 limits assumed): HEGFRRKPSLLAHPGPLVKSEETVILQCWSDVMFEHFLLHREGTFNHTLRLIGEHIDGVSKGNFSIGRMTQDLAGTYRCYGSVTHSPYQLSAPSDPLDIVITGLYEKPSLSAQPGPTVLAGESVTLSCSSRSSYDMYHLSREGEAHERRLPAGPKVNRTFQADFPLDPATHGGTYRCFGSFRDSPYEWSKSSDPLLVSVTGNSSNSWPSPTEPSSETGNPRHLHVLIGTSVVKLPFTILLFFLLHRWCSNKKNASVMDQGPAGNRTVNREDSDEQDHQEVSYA
T10 sequence (P43628 22-341 limits assumed): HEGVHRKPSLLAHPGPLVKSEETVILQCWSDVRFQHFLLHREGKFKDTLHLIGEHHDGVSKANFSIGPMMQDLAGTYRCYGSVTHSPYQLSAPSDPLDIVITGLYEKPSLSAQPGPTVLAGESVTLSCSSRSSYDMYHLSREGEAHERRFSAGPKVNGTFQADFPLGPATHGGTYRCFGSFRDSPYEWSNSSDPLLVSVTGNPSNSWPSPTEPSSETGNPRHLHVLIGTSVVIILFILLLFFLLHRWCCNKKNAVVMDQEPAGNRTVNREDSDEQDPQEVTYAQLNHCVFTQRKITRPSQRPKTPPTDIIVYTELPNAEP

B1: KIR3DL3 mAb 574.2.8C2.12.3.10 (antibody, IgG2a, V domains shown)
VH: KVQLQQSGAELVRPGTSVKVSCKASGYAFTNYLIEWVKQRPGQGLEWIGVINPGSGGTNDNEKFRDKATLTADKSSSTAYMQLSSLTSDDSAVYFCARGNYYGTTDWYFDVWGAGTTVTVSS
VL: QIVLTQSPAIMSASLGERVTMTCTASASVSSSSLHWYQQKPGSPPKFWIYSTTNLASGVPTRFSGSGSGTSYSLTISNMEAEDAATYYCHQYHRSPPTFGGGTKLEIK
notes: Mouse hybridoma antibody, IgG2a; only variable domains given; also called AVS-3706
B1: no binding (tested: supernatant 1:5, 1:25, 1:250) [1]; no binding (tested: supernatant 1:5, 1:25, 1:250) [2]; no binding (tested: supernatant 1:5, 1:25, 1:250) [3]. B1: no binding (tested: supernatant 1:5, 1:25, 1:250) [4]; no binding (tested: supernatant 1:5, 1:25, 1:250) [5]; no binding (tested: supernatant 1:5, 1:25, 1:250) [6]. B1: no binding (tested: supernatant 1:5, 1:25, 1:250) [7]; no binding (tested: supernatant 1:5, 1:25, 1:250) [8]; no binding (tested: supernatant 1:5, 1:25, 1:250) [9]. B1: no binding (tested: supernatant 1:5, 1:25, 1:250) [10]; no binding (tested: supernatant 1:5, 1:25, 1:250) [11]; binds [12].
